First the molecules themselves.
B1: THAP1; numbered along this chain (parent)
chain: MVQSCSAYGCKNRYDKDKPVSFHKFPLTRPSLCKEWEAAVRRKNFKPTKYSSICSEHFTPDCFKRECNNKLLKENAVPTIFLCTEPHDKKEDLLEPQEQLPPPPLPPPVSQVDAAIGLLMPPLQTPVNLSVFCDHNYTVEDTMHQRKRIHQLEQQVEKLRKKLKTAQQRCRRQERQLEKLKEVVHFQKEKDDVSERGYVILPNDYFEIVEVPA

The variants in this series derive from B1. Nature of the series: THAP1 transcriptional activity (GFP+/GFP- enrichment relative to wild-type constructs) (ratio to WT); higher = more THAP1 activity (PSMB5 reporter activation). Conditions: with PSMB5 promoter-GFP reporter. The essentials: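 Variants were counted by Illumina sequencing of genomic DNA amplicons from BFP+ cells sorted into GFP-bright and GFP-dim bins five days after lentiviral transduction, in duplicate at MOI ~0.3. The library changed each of residues 2–213 of human THAP1 to all 20 amino acids and was introduced into THAP1-knockout HEK-293T cells with mClover3 knocked in at endogenous PSMB5. Activity equals the replicate-mean bright/dim read fold change over the mean of wild-type synonymous constructs.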
With MVQSCSAYGCKNRYDKDKPVSFHKFPLTRPSLCKEWEAAVRRKNFKPTKYSSICSEHFTPDCFKRECNNKLLKENAVPTIFLCTEPHDKKEDLLEPQEQLPPPPLPPPVSQVDAAIGLLMPPLQTPVNLSVFHDHNYTVEDTMHQRKRIHQLEQQVEKLRKKLKTAQQRCRRQERQLEKLKEVVHFQKEKDDVSERGYVILPNDYFEIVEVPA [C133H], the THAP1 transcriptional activity was 2.5.
Regarding MVQSCSAYGCKNRYDKDKPVSFHKFPLTRPSLCKEWEAAVRRKNFKPTKYSMICSEHFTPDCFKRECNNKLLKENAVPTIFLCTEPHDKKEDLLEPQEQLPPPPLPPPVSQVDAAIGLLMPPLQTPVNLSVFCDHNYTVEDTMHQRKRIHQLEQQVEKLRKKLKTAQQRCRRQERQLEKLKEVVHFQKEKDDVSERGYVILPNDYFEIVEVPA [S52M], the THAP1 transcriptional activity amounted to 0.633.
Consider MVQSCSAYGCKNRYDKDKPVSFHKFPLTRPSLCKEWEAAVRRKNFKPTKYSLICSEHFTPDCFKRECNNKLLKENAVPTIFLCTEPHDKKEDLLEPQEQLPPPPLPPPVSQVDAAIGLLMPPLQTPVNLSVFCDHNYTVEDTMHQRKRIHQLEQQVEKLRKKLKTAQQRCRRQERQLEKLKEVVHFQKEKDDVSERGYVILPNDYFEIVEVPA [S52L], for which the THAP1 transcriptional activity came to 0.606.
In the case of MVQSCSAYGCKNRYDKDKPVSFHKFPLTRPSLCKEWEAAVRRKNFKPTKYSSICSEHFTPDCFKRECNNKLLKENAVPTIFLCTEPHDKKEDLLEPQEQLPPPPLPPPVSQVDAAIGLLMPPLQTPVNLSVFCDHNYTVIDTMHQRKRIHQLEQQVEKLRKKLKTAQQRCRRQERQLEKLKEVVHFQKEKDDVSERGYVILPNDYFEIVEVPA [E140I], the THAP1 transcriptional activity was determined as 1.08.
Then MVQSCSAYGCKNRYDKDKPVSFHKFPLTRPSLCKEWEAAVRRKNFKPTKYSSICSEHFTPDCFKRECNNKLLKENAVPTIFLCTEPHDKKEDLLEPQEQLPPPPLPPPVSQVDAAIGLLMPPLQTPVNLSVFCDHNYTVEDTMHQRKRIHQLEQQVENLRKKLKTAQQRCRRQERQLEKLKEVVHFQKEKDDVSERGYVILPNDYFEIVEVPA [K158N], with 0.391; and MVQSCSAYGCKNRYDKDKPVSFHKFPLTRPSLCKEWEAAVRRKNFKPTKYSSICSEHFTPDCFKRECNNKLLKENAVPTIFLCTEPHDKKEDLLEPQEQLPPPPLPPPVSQVDAAIGLLMPPLQTPVNLSVFCDHNYTVEDTMHQRKRIHQLEQQVEKLRKKLKTAQQRCRRQERQLEKLKEVVHFQKEKDDASERGYVILPNDYFEIVEVPA [V193A], with 0.82; and MVQSCSAYGCKNRYDKDKPVSFHKFPLTRPSLCKEWEAAVRRKNFKPTKYSSICSEHFTPDCFKRECNNKLLKENAVPTIFLCTEPHDKKEDLLSPQEQLPPPPLPPPVSQVDAAIGLLMPPLQTPVNLSVFCDHNYTVEDTMHQRKRIHQLEQQVEKLRKKLKTAQQRCRRQERQLEKLKEVVHFQKEKDDVSERGYVILPNDYFEIVEVPA [E95S], with 1.02.
Then MVQSCSAYGCKNRYDKDKPVSFHKFPLTRPSLCKEWEAAVRRKNFRPTKYSSICSEHFTPDCFKRECNNKLLKENAVPTIFLCTEPHDKKEDLLEPQEQLPPPPLPPPVSQVDAAIGLLMPPLQTPVNLSVFCDHNYTVEDTMHQRKRIHQLEQQVEKLRKKLKTAQQRCRRQERQLEKLKEVVHFQKEKDDVSERGYVILPNDYFEIVEVPA [K46R], with 0.568; and MVQSCSAYGCKNRYDKDKPVSFHKFPLTRPSLCKEWEAAVRRKNFKPTKYSSICSEHFTPDCFKRECNNKLLKENAVPTIFLCTEPHDKKEDLLEPQEQLPPPPLPPPVSQVDAAIGLLMPPLQTPVNLSVFCDHNYTVEDTMHQRKRDHQLEQQVEKLRKKLKTAQQRCRRQERQLEKLKEVVHFQKEKDDVSERGYVILPNDYFEIVEVPA [I149D], with 0.218; and MVQSCSAYGCKNRYDKDKPVSFHKFPLTRPSLCKEWEAAVRRKNFKPTKYSSICSEHFTPDCFKRECNNKLLKENAVPTIFLCTEPHDKKEDLLEPQEQLPPPPLPPPVSQVDAAIGLLMPPLQTPVNLSVFCDHNYTVEDTMHQRKRIHQLEQQVEKLPKKLKTAQQRCRRQERQLEKLKEVVHFQKEKDDVSERGYVILPNDYFEIVEVPA [R160P], with 0.171.
Then MVQSCSAYGCKNRYDKDKPVSFHKFPLTRPSLCKEWEAAVRRKNFKPTKYRSICSEHFTPDCFKRECNNKLLKENAVPTIFLCTEPHDKKEDLLEPQEQLPPPPLPPPVSQVDAAIGLLMPPLQTPVNLSVFCDHNYTVEDTMHQRKRIHQLEQQVEKLRKKLKTAQQRCRRQERQLEKLKEVVHFQKEKDDVSERGYVILPNDYFEIVEVPA [S51R], with 0.0935; and MVQSCSAYGCKNRYDKDKPVSFHKFPLTRPALCKEWEAAVRRKNFKPTKYSSICSEHFTPDCFKRECNNKLLKENAVPTIFLCTEPHDKKEDLLEPQEQLPPPPLPPPVSQVDAAIGLLMPPLQTPVNLSVFCDHNYTVEDTMHQRKRIHQLEQQVEKLRKKLKTAQQRCRRQERQLEKLKEVVHFQKEKDDVSERGYVILPNDYFEIVEVPA [S31A], with 1.03.
MVQSCSAYGCKNRYDKDKPVSFHKFPLTRPSLCKEWEAAVRRKNFKPTKYSSICSEHFTPDCFKRECNNKLLKENAVPTIFLCTEPHDKKEDLLEPQEQLPPPPLPPPVSQVDAAIGLLMPPLQTPVNLSVFCDHNYTVEDTNHQRKRIHQLEQQVEKLRKKLKTAQQRCRRQERQLEKLKEVVHFQKEKDDVSERGYVILPNDYFEIVEVPA [M143N]: the THAP1 transcriptional activity was determined as 0.961.
The figure for MVQSCSAYGCKNRYDKDKPVSFHKFPLTRPSLCKEWEAAVRRKNFKPTKYSSICSEHFTPDCFKRECNNKLLKENAVPTIFLCTEPHDKKEDLLEPQEQLPPPPLPPPVSQVDAAIGLLMPPLQTPVNLSVFCDHNYTVEDTMHQRKRIHQLEQQVEKLRKKLKTAQQRCRRQERQLEKLKEVVHFQKEKDDVSERGYVIFPNDYFEIVEVPA [L201F] is 0.809.

The record behind these values is the supplement of paper PMC11811203.
